The values that follow come from article PMC11747444.

The assay deals with recombinant strep-tagged apo-APC/C, dephosphorylated (UniProt Q9H1A4).
Sequence of UniProt Q9H1A4 (Q9H1A4 whole entry, looked up): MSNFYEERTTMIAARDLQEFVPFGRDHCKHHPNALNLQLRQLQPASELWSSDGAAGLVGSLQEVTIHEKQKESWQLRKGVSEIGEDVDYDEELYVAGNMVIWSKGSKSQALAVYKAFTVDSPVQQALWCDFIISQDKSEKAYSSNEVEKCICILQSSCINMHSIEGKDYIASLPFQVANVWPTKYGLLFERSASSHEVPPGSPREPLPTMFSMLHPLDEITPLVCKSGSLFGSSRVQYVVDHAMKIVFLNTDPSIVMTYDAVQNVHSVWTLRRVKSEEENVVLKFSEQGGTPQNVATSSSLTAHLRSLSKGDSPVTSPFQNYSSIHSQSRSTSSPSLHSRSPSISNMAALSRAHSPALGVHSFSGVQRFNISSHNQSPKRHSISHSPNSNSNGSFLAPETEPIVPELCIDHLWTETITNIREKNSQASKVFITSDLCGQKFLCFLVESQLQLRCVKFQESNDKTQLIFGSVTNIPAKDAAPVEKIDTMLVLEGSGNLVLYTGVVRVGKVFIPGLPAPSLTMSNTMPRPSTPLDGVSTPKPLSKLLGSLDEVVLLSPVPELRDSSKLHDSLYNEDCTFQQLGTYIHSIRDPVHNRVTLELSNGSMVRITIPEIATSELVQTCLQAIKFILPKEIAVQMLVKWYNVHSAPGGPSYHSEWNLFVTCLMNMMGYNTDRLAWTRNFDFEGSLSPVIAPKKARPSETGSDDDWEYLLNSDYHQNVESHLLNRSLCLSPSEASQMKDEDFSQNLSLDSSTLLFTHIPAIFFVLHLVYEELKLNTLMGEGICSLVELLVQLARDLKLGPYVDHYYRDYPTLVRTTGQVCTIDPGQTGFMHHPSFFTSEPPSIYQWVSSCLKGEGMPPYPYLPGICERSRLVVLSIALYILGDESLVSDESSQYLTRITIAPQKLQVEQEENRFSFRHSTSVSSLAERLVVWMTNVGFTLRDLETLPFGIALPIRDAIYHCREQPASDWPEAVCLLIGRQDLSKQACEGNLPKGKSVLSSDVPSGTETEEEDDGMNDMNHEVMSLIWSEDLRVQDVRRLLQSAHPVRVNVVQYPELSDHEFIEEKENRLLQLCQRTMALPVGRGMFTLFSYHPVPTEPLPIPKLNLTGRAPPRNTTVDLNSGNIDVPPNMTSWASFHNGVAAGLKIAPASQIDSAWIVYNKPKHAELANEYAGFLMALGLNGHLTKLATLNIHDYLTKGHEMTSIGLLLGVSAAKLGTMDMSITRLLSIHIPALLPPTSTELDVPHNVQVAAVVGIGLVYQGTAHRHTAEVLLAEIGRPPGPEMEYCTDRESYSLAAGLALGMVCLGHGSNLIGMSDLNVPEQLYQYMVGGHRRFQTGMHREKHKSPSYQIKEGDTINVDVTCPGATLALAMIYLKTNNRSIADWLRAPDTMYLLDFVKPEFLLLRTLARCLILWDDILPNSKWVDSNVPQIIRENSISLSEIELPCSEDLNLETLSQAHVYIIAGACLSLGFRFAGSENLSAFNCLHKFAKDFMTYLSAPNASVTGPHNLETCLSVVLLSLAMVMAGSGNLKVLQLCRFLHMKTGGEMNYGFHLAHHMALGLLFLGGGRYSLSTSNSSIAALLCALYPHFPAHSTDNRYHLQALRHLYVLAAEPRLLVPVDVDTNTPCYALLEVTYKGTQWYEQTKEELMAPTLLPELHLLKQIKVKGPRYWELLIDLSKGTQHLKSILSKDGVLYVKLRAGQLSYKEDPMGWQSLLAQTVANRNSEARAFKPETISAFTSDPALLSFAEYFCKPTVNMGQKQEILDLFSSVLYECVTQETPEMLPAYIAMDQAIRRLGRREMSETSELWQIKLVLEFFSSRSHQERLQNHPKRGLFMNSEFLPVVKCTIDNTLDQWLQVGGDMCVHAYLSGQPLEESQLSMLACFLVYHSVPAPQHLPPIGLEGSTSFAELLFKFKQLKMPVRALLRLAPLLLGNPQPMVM

For the substance “CDK1/CKS1/cyclin B1^wt complex (CCC^wt) (from UniProt P06493 1-297; P61024 1-79; P14635 1-433)”, the phosphosites on dephosphorylated recombinant APC/C after in vitro phosphorylation, by mass spectrometry stood at 28 phosphosites.
